Measurements as given in PMC3306459 (Journal of Inorganic Biochemistry, 2011).
Substitutions are numbered along the chain they refer to. Numbers in names are those of the source.

T1: G450A iNOS full length protein (mouse, UniProt P29477 1-1144, G450A)
T1 sequence (looked up): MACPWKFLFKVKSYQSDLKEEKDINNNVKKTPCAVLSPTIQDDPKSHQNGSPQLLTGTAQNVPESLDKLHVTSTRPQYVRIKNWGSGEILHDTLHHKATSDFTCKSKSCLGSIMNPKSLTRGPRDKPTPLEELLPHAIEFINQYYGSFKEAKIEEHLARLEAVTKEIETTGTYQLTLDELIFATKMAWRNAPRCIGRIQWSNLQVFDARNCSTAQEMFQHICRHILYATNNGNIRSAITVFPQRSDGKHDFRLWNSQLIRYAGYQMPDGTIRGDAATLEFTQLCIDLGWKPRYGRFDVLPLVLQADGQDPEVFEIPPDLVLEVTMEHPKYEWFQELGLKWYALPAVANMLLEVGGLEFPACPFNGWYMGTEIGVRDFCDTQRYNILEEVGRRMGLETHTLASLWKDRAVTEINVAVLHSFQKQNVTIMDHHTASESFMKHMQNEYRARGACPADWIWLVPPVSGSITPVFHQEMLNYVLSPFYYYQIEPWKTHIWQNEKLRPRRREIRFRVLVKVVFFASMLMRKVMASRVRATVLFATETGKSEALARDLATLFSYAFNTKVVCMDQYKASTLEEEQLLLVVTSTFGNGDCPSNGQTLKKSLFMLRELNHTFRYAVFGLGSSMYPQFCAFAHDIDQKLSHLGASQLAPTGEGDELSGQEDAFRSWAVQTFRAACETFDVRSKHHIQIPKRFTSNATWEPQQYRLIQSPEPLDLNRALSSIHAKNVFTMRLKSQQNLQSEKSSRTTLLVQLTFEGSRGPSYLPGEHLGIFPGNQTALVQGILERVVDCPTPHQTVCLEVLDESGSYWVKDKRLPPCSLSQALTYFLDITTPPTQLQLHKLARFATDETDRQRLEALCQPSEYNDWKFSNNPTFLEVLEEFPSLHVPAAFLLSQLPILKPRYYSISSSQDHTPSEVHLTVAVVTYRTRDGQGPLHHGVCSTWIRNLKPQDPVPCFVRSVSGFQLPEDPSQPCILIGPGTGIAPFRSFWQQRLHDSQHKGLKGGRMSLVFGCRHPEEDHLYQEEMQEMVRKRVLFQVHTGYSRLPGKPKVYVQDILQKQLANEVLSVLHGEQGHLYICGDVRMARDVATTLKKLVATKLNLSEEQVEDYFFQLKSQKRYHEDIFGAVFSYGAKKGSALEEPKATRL

B1: wild type Δ65iNOSoxy domain (oxygenase domain of inducible nitric oxide synthase, amino acid 66–498) (domain or fragment, mouse, UniProt P29477 66-498, looked up)
chain: LDKLHVTSTRPQYVRIKNWGSGEILHDTLHHKATSDFTCKSKSCLGSIMNPKSLTRGPRDKPTPLEELLPHAIEFINQYYGSFKEAKIEEHLARLEAVTKEIETTGTYQLTLDELIFATKMAWRNAPRCIGRIQWSNLQVFDARNCSTAQEMFQHICRHILYATNNGNIRSAITVFPQRSDGKHDFRLWNSQLIRYAGYQMPDGTIRGDAATLEFTQLCIDLGWKPRYGRFDVLPLVLQADGQDPEVFEIPPDLVLEVTMEHPKYEWFQELGLKWYALPAVANMLLEVGGLEFPACPFNGWYMGTEIGVRDFCDTQRYNILEEVGRRMGLETHTLASLWKDRAVTEINVAVLHSFQKQNVTIMDHHTASESFMKHMQNEYRARGGCPADWIWLVPPVSGSITPVFHQEMLNYVLSPFYYYQIEPWKTHIWQNE
B2: R375N Δ65iNOSoxy (amino acid 66–498) (domain or fragment, mouse, UniProt P29477 66-498, looked up)
chain: B1 chain with R310N
B3: R375D Δ65iNOSoxy (amino acid 66–498) (domain or fragment, mouse, UniProt P29477 66-498, looked up)
chain: B1 chain with R310D
B4: R375K Δ65iNOSoxy (amino acid 66–498) (domain or fragment, mouse, UniProt P29477 66-498, looked up)
chain: B1 chain with R310K

biological target: T1, G450A iNOS full length protein; assay: cell-based or functional assay

NO2^- production of the heterodimer, Griess assay [µM] | NO synthesis (min^-1) of the heterodimer, oxyhemoglobin assay [min⁻¹] | Binder
30.3 | 51.8 | B1
6.3 | 8.6 | B2
1.8 | 1.7 | B3
7.8 | 17.6 | B4

Biological target: the molecule itself
Assay: SEC

Binder | dimer content [%]
B2 | 38
B3 | 30
B4 | 100
